# Test results: US20230140868A1, “COMPOSITIONS AND METHODS FOR TREATING CANCER” (Alpha Beta Holdings, LLC, priority 2020, published 2023)
# B1: LM609: mouse monoclonal IgG1K antibody that recognizes human integrin αvβ3; SEQ ID NO:11 and 12 (antibody)
# heavy: MNFGLRLIFLVLTLKGVKCEVQLVESGGGLVKPGGSLKLSCAASGFAFSSYDMSWVRQIPEKRLEWVAKVSSGGGSTYYLDTVQGRFTISRDNAKNTLYLQMSSLNSEDTAMYYCARHNYGSFAYWGQGTLVTVSAAKTTPPSVYPLAPGSAAQTNSMVTLGCLVKGYFPEPVTVTWNSGSLSSGVHTFPAVLQSDLYTLSSSVTVPSSTWPSETVTCNVAHPASSTKVDKKIVPRDCGCKPCICTVPEVSSVFIFPPKPKDVLTITLTPKVTCVVVDISKDDPEVQFSWFVDDVEVHTAQTQPREEQFNSTFRSVSELPIMHQDWLNGKEFKCRVNSAAFPAPIEKTISKTKGRPKAPQVYTIPPPKEQMAKDKVSLTCMITDFFPEDITVEWQWNGQPAENYKNTQPIMDTDGSYFVYSKLNVQKSNWEAGNTFTCSVLHEGLHNHHTEKSLSHSPGK
# light: MVFTPQILGLMLFWISASRGDIVLTQSPATLSVTPGDSVSLSCRASQSISNHLHWYQQKSHESPRLLIKYASQSISGIPSRFSGSGSGTDFTLSINSVETEDFGMYFCQQSNSWPHTFGGGTKLEIKRADAAPTVSIFPPSSEQLTSGGASVVCFLNNFYPKDINVKWKIDGSERQNGVLNSWTDQDSKDSTYSMSSTLTLTKDEYERHNSYTCEATHKTSTSPIVKSFNRNEC
# modifications: mAb LM609-mIgG1-kappa Heavy chain; mAb LM609-mIgG1-kappa Light chain
# Key:
# [1] = system: αvβ3-expressing tumor cell lines; assay: Macrophage-mediated killing: Fc dependence, ADCC vs ADCP vs direct killing; format: cell-based
# Procedure: (§1) We used the isolated macrophages as effector cells in an antibody-dependent cellular-cytotoxicity (ADCC) assay. […] The ratio of dead target cells (PI-positive) to the total target cell population (CFSE-positive) was calculated as described (Bracher, 2007).
# These findings were reported in FIGS. 3C-3D of Wettersten et al., Cancer Res. 79:5048 (2019).
# Monoclonal antibodies can direct macrophages to induce tumor cell killing through two primary mechanisms, processes known as antibody-dependent cellular phagocytosis (ADCP) and antibody-dependent cellular cytotoxicity (ADCC). […] The lack of an ADCP response is consistent with high tumor cell expression of CD47, the “don't eat me” signal (Chao, 2012) that tumor cells often exploit to evade phagocytosis.
# integrin αvβ3 = integrin αvβ3 (Homo sapiens, UniProt P05106+P06756); conditions: human cells; Cheresh, 1987; cited from earlier work
# tumor cells [2] = assay: In vitro ADCC with human PBMCs; format: cell-based; conditions: effector: PBMCs isolated from human blood
# Procedure: (§2) Human peripheral blood mononuclear cells (PBMCs) and macrophages were isolated using leukoreduction system chambers (LRSC) purchased from the San Diego Blood Bank. PBMCs were isolated from LRSC using Histopaque-1083 (Sigma, 10831) following the manufacturer's protocol. To obtain macrophages, PBMCs were incubated in tissue culture plates with human M-CSF (Peprotech, 300-25) for 5 days.
# as §1
# (§3) To our surprise, LM609-mediated ADCC was not achieved with mouse NK cells or peripheral blood mononuclear cells (PBMCs) isolated from human blood, immune effector cell types to which antibodies are commonly engineered for optimal binding (Listinsky, 2013; Yu, 2017). In fact, NK cells are not correlated with β3 expression in tumors. These findings were reported in FIG. 3E of Wettersten et al., Cancer Res. 79:5048 (2019).
# tumor cells [3] = assay: In vitro ADCC with mouse NK cells; format: cell-based; conditions: effector: mouse NK cells
# Procedure: as §1, §3
# [4] = system: αvβ3-expressing human lung cancer cells; assay: In vitro ADCC, primary human monocyte-derived macrophages as effector cells (FIG. 10A); format: cell-based; conditions: increasing E:T
# Source text: (A) In vitro ADCC for primary human monocyte-derived macrophages as effector cells. (B). In vitro ADCC for human NK cells as effector cells. Graphs show effect of increasing effector-to-target ratio (E:T) on death of αvβ3-expressing human lung cancer cells.
# This distinction could produce a therapeutic advantage by achieving matching between the antigen (integrin αvβ3) and the types of effector cells that are particularly enriched in αvβ3-expressing tumors, such as macrophages.
# tumor cells [5] = assay: In vitro ADCC with TAMs isolated from mouse Lewis lung carcinoma tumors; format: cell-based; conditions: effector: TAMs from LLC tumors grown in C57BL6 or athymic nude mice
# Procedure: TAMs were isolated from tumor tissues as described (Kaneda, 2016). Tumors were dissociated in HBSS containing collagenase IV (Sigma, C5138), hyaluronidase (Sigma, H2654), dispase 11 (Roche, 04942078001), and DNase IV (Millipore, D5025) at 37° C. for 15 minutes. Cell suspensions were filtered through 70 μm cell strainers and washed with PBS. Single cell suspensions (10^6 cells/100 μl in 5% BSA in PBS) were incubated with Mouse BD Fc Block™ (BD Biosciences, 553142, 1:50) for 10 minutes at 4° C. and fluorescently labeled antibodies, CD11b (eBioscience, 17-0112-81, 1:100), and Ly-6G (eBioscience, 25-5931-81, 1:100), for one hour at 4° C. TAMs (CD11b-positive, Ly-6G-negative) were sorted.
# as §1
# [6] = system: αvβ3-expressing human pancreatic xenograft tumors; assay: αvβ3-expressing human pancreatic xenograft with or without macrophage depletion; format: in vivo, nude mice
# Source text: Successful depletion of macrophages by clodronate treatment was confirmed by staining tumor sections for the mouse macrophage marker F4/80.
# tumor cells [7] = assay: In vitro ADCC with human monocyte-derived macrophages from healthy donor blood (LM609); format: cell-based; conditions: effector: human monocyte-derived macrophages from healthy donor blood
# Procedure: as §2, §1
# [8] = additional αvβ3-expressing tumor cell lines: lung, pancreas, brain, kidney cancer
# integrin αvβ3, sequence (P06756 31-889 limits assumed): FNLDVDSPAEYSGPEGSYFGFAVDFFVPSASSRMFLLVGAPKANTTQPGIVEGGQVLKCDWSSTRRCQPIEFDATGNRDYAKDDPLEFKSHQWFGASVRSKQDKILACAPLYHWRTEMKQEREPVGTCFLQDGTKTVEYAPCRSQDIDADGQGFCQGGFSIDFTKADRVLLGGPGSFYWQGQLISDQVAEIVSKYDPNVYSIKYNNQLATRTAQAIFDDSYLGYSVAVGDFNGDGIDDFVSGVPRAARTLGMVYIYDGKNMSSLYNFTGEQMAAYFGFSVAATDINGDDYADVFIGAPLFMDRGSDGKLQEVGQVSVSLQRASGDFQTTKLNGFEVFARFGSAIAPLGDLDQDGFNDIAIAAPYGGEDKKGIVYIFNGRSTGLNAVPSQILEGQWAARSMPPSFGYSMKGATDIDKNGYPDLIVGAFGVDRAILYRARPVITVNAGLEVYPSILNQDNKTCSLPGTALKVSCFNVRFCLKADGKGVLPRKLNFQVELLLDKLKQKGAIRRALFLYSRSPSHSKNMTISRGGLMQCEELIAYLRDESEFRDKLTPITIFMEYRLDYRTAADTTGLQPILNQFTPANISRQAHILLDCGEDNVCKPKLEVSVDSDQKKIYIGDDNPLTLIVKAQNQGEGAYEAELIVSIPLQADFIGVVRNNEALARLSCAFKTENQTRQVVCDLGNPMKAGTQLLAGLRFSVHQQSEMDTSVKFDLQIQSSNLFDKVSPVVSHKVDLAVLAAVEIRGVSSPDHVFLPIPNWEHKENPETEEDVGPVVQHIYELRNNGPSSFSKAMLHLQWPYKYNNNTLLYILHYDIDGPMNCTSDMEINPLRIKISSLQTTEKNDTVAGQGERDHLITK
# integrin αvβ3, sequence (P06756 891-1048 limits assumed): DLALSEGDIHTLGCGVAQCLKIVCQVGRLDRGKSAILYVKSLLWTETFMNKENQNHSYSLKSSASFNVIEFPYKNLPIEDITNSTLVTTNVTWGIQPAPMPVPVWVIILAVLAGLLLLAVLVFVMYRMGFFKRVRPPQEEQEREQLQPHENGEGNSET
# integrin αvβ3, sequence (P05106 27-788): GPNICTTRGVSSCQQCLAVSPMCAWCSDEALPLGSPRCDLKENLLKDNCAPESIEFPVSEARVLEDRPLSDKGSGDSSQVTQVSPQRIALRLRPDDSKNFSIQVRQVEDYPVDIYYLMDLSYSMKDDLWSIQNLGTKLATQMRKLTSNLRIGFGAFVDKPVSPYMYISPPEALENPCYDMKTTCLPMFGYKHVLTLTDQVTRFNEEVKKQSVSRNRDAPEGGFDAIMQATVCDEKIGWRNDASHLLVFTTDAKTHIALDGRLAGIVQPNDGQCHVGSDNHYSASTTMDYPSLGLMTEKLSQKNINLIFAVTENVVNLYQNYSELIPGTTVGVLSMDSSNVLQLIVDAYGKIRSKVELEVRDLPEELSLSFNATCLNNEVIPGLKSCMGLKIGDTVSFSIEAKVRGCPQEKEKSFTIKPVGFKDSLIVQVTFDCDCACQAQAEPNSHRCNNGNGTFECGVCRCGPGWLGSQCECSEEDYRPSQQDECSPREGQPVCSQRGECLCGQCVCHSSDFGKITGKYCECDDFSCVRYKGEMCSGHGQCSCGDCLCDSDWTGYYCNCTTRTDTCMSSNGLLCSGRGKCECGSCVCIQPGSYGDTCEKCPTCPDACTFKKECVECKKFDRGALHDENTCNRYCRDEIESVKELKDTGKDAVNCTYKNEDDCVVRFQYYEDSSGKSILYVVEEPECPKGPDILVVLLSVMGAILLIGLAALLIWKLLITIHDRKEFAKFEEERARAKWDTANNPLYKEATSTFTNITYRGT
molecule,measurement,setting,value
B1,ADCP,[1]; FIG. 3F of Wettersten et al.,not ADCP
same,direct killing,[1]; FIG. 3F of Wettersten et al.,not ADCP or direct killing
same,ADCP,[1]; [8],not ADCP
same,direct killing,[1]; [8],not ADCP or direct killing
same,macrophage-mediated ADCC,[1]; [8],also observed
same,macrophage-mediated killing,"[1]; in the presence of an antibody blocking the Fc receptors CD16, CD32, and CD64",no macrophage-mediated killing
same,macrophage ADCC,"[1]; required integrin β3 expression, FIG. 3F of Wettersten et al.",induced macrophage ADCC
same,recognition of integrin αvβ3,integrin αvβ3,recognizes integrin αvβ3 on human
same,LM609-mediated ADCC,tumor cells [2],not achieved
same,LM609-mediated ADCC,tumor cells [3],not achieved
same,ADCC with human macrophages as effector cells,[4],able to induce ADCC
same,ADCC activity,tumor cells [5],robust ADCC activity
same,anti-tumor effect after macrophage depletion,[6]; macrophage depletion using clodronate liposomes,completely blocked
same,sensitivity of xenograft tumors to LM609,[6]; reported in FIG. 2A of Wettersten et al.,highly sensitive
same,ADCC (tumor cell killing),tumor cells [7],could also kill tumor cells
